Test results taken from IntAct's records for PubMed 15350218.

B1: Synaptotagmin-2 (Rattus norvegicus (Rat)), P29101 (parent)
chain: MRNIFKRNQEPIVAPATTTATMPLAPAAPADNSTESTGTGESQEDMFAKLKDKFFNEINKIPLPPWALIAMAVVAGLLLLTCCFCICKKCCCKKKKNKKEKGKGMKNAMNMKDMKGGQDDDDAETGLTEGEGEGEEEKEPENLGKLQFSLDYDFQANQLTVGVLQAAELPALDMGGTSDPYVKVFLLPDKKKKYETKVHRKTLNPAFNETFTFKVPYQELGGKTLVMAIYDFDRFSKHDIIGEVKVPMNTVDLGQPIEEWRDLQGGEKEEPEKLGDICTSLRYVPTAGKLTVCILEAKNLKKMDVGGLSDPYVKIHLMQNGKRLKKKKTTVKKKTLNPYFNESFSFEIPFEQIQKVQVVVTVLDYDKLGKNEAIGKIFVGSNATGTELRHWSDMLANPRRPIAQWHSLKPEEEVDALLGKNK

Variants of: B1
Details: with wnk1_rat Wnk1, Q9JIH7
Sequence of wnk1_rat Wnk1, Q9JIH7 (Q9JIH7 whole entry): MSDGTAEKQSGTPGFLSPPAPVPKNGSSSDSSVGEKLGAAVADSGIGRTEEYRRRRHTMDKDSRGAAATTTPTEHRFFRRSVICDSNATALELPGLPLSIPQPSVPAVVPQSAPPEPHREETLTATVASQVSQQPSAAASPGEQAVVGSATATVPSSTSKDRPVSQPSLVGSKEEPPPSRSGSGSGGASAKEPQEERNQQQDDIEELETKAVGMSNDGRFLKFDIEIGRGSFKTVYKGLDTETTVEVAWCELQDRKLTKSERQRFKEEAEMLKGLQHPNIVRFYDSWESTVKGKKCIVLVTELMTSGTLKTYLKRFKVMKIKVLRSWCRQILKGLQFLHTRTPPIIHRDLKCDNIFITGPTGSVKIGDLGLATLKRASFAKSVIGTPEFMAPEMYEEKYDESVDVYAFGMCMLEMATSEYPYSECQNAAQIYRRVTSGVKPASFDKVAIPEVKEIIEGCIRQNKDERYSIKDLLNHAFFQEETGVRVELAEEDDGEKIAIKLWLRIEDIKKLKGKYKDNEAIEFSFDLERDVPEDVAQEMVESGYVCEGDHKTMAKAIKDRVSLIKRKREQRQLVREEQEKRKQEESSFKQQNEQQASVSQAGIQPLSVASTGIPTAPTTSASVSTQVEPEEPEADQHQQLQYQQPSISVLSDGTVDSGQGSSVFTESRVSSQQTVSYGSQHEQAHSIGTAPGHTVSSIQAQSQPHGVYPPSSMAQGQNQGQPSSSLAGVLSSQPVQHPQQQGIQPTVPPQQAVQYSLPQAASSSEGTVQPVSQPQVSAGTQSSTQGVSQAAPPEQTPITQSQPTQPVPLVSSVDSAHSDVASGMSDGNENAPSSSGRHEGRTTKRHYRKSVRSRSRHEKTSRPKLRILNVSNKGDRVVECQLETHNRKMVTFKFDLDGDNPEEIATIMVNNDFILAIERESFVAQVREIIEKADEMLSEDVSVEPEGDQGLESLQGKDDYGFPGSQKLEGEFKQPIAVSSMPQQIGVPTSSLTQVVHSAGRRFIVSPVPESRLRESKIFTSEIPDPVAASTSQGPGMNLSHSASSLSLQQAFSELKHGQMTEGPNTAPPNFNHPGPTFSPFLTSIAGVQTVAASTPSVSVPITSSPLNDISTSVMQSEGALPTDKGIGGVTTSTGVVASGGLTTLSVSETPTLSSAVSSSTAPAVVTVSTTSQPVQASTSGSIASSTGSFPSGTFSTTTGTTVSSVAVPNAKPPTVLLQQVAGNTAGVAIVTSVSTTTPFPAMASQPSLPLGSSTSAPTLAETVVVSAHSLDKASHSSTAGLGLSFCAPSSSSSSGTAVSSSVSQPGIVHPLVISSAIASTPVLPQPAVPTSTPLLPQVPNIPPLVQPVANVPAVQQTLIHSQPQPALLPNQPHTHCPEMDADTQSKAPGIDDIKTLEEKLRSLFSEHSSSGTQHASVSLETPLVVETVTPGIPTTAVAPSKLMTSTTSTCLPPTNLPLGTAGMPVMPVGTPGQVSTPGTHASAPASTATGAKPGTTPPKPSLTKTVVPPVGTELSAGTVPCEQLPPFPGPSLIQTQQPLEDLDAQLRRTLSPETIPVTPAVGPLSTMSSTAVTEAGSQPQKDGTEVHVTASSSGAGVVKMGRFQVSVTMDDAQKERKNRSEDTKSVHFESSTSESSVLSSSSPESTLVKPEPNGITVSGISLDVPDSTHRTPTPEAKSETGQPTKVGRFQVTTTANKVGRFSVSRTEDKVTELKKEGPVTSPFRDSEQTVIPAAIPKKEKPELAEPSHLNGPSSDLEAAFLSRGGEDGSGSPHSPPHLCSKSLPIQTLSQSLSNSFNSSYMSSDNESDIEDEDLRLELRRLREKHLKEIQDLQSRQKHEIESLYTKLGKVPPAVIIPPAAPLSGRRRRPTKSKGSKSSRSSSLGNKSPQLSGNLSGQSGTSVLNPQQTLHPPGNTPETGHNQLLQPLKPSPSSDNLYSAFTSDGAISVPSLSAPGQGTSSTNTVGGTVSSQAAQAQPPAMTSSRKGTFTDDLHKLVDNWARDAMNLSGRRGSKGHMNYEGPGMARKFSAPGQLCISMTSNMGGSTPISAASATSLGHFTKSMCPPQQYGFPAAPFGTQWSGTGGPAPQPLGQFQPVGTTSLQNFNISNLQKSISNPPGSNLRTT

effect of a mutation on the interaction | Variant
decreasing interaction | D231S

Variants of: B1
Details: with wnk1_rat Wnk1, Q9JIH7
Remark: another data set of the same source

effect of a mutation on the interaction | Variant
decreasing interaction | D310N
